In data set [1] the test system is HeLa Kyoto. Description: solubility in G1/S (NP-40 vs SDS abundance) (log2 ratio); higher = more soluble. The settings on record: cell cycle stage: G1/S.
Data set [2] has as its system HeLa Kyoto. Briefly: melting temperature (median over replicates), in situ; higher = more thermally stable.
The subject of data set [3] is HeLa Kyoto. Description: solubility change mitosis vs G1/S (difference of NP-40 vs SDS log2 ratios) (log2 ratio difference); higher = more soluble in mitosis.
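For melting temperature (median over replicates), in situ in this document: HeLa Kyoto cells synchronized by double thymidine or nocodazole block, proteins quantified by TMT10plex mass spectrometry, three independent biological replicates.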
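For solubility change mitosis vs G1/S (difference of NP-40 vs SDS log2 ratios) in this document: synchronized HeLa Kyoto cells (double thymidine block for G1/S, nocodazole release for mitosis), protein amounts in NP-40 versus SDS lysates quantified by mass spectrometry, three biological replicates.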
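For solubility in G1/S (NP-40 vs SDS abundance) in this document: HeLa Kyoto cells arrested at G1/S by double thymidine block, proteins quantified by TMT10plex mass spectrometry in mild NP-40 versus SDS extracts, three biological replicates.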

Sequence of MARK1 (chain, as listed by the source): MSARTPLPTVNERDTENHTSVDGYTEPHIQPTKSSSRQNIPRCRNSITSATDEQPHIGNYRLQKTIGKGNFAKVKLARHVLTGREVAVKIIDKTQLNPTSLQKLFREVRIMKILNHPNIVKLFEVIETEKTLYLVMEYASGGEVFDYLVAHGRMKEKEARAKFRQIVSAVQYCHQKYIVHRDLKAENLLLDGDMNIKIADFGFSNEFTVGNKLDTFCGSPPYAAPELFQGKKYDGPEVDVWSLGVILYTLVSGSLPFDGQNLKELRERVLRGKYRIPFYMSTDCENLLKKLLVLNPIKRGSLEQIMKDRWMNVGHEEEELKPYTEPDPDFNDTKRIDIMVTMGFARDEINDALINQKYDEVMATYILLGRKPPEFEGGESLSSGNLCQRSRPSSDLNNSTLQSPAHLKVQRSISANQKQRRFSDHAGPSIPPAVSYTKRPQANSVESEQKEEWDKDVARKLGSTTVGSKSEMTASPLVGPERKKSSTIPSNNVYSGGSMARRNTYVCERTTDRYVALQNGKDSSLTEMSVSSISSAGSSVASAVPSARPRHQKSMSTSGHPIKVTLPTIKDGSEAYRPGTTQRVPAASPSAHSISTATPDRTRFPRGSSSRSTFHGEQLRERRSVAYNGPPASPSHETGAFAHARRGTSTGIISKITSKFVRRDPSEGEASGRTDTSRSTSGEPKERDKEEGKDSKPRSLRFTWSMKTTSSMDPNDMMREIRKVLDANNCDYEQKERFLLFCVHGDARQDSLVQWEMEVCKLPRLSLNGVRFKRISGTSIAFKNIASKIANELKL

Take “MAQGWAGFSEEELRRLKQTKDPFEPQRRLPAKKSRQQLQREKALVEQSQKLGLQDGSTSLLPEQLLSAPKQRVNVQKPPFSSPTLPSHFTLTSPVGDGQPQGIESQPKELGLENSHDGHNNVEILPPKPDCKLEKKKVELQEKSRWEVLQQEQRLMEEKNKRKKALLAKAIAERSKRTQAETMKLKRIQKELQALDDMVSADIGILRNRIDQASLDYSYARKRFDRAEAEYIAAKLDIQRKTEIKEQLTEHLCTIIQQNELRKAKKLEELMQQLDVEADEETLELEVEVERLLHEQEVESRRPVVRLERPFQPAEESVTLEFAKENRKCQEQAVSPKVDDQCGNSSSIPFLSPNCPNQEGNDISAALAT [GORAB]”: the “solubility in G1/S (log2)” value in the data set on HeLa Kyoto [1] stood at 0.431. The substance also returned a melting temperature in the data set on HeLa Kyoto [2] (cell cycle stage: mitosis) of 50.9 °C. In the data set with HeLa Kyoto [3], the “solubility change mitosis (log2)” value was determined as 0.118.

As for “MAQQANVGELLAMLDSPMLGVRDDVTAVFKENLNSDRGPMLVNTLVDYYLETSSQPALHILTTLQEPHDKHLLDRINEYVGKAATRLSILSLLGHVIRLQPSWKHKLSQAPLLPSLLKCLKMDTDVVVLTTGVLVLITMLPMIPQSGKQHLLDFFDIFGRLSSWCLKKPGHVAEVYLVHLHASVYALFHRLYGMYPCNFVSFLRSHYSMKENLETFEEVVKPMMEHVRIHPELVTGSKDHELDPRRWKRLETHDVVIECAKISLDPTEASYEDGYSVSHQISARFPHRSADVTTSPYADTQNSYGCATSTPYSTSRLMLLNMPGQLPQTLSSPSTRLITEPPQATLWSPSMVCGMTTPPTSPGNVPPDLSHPYSKVFGTTAGGKGTPLGTPATSPPPAPLCHSDDYVHISLPQATVTPPRKEERMDSARPCLHRQHHLLNDRGSEEPPGSKGSVTLSDLPGFLGDLASEEDSIEKDKEEAAISRELSEITTAEAEPVVPRGGFDSPFYRDSLPGSQRKTHSAASSSQGASVNPEPLHSSLDKLGPDTPKQAFTPIDLPCGSADESPAGDRECQTSLETSIFTPSPCKIPPPTRVGFGSGQPPPYDHLFEVALPKTAHHFVIRKTEELLKKAKGNTEEDGVPSTSPMEVLDRLIQQGADAHSKELNKLPLPSKSVDWTHFGGSPPSDEIRTLRDQLLLLHNQLLYERFKRQQHALRNRRLLRKVIKAAALEEHNAAMKDQLKLQEKDIQMWKVSLQKEQARYNQLQEQRDTMVTKLHSQIRQLQHDREEFYNQSQELQTKLEDCRNMIAELRIELKKANNKVCHTELLLSQVSQKLSNSESVQQQMEFLNRQLLVLGEVNELYLEQLQNKHSDTTKEVEMMKAAYRKELEKNRSHVLQQTQRLDTSQKRILELESHLAKKDHLLLEQKKYLEDVKLQARGQLQAAESRYEAQKRITQVFELEILDLYGRLEKDGLLKKLEEEKAEAAEAAEERLDCCNDGCSDSMVGHNEEASGHNGETKTPRPSSARGSSGSRGGGGSSSSSSELSTPEKPPHQRAGPFSSRWETTMGEASASIPTTVGSLPSSKSFLGMKARELFRNKSESQCDEDGMTSSLSESLKTELGKDLGVEAKIPLNLDGPHPSPPTPDSVGQLHIMDYNETHHEHS [TSC1]”, the “solubility in G1/S (log2)” value with HeLa Kyoto [1] is 0.0426. In addition, the melting temperature was 50.2 °C in the data set on HeLa Kyoto [2] (cell cycle stage: G1/S) and 50.7 °C in the data set with HeLa Kyoto [2] (cell cycle stage: mitosis). In addition, the “solubility change mitosis (log2)” value in the data set on HeLa Kyoto [3] was -0.187.

With “MAQVLHVPAPFPGTPGPASPPAFPAKDPDPPYSVETPYGYRLDLDFLKYVDDIEKGHTLRRVAVQRRPRLSSLPRGPGSWWTSTESLCSNASGDSRHSAYSYCGRGFYPQYGALETRGGFNPRVERTLLDARRRLEDQAATPTGLGSLTPSAAGSTASLVGVGLPPPTPRSSGLSTPVPPSAGHLAHVREQMAGALRKLRQLEEQVKLIPVLQVKLSVLQEEKRQLTVQLKSQKFLGHPTAGRGRSELCLDLPDPPEDPVALETRSVGTWVRERDLGMPDGEAALAAKVAVLETQLKKALQELQAAQARQADPQPQAWPPPDSPVRVDTVRVVEGPREVEVVASTAAGAPAQRAQSLEPYGTGLRALAMPGRPESPPVFRSQEVVETMCPVPAAATSNVHMVKKISITERSCDGAAGLPEVPAESSSSPPGSEVASLTQPEKSTGRVPTQEPTHREPTRQAASQESEEAGGTGGPPAGVRSIMKRKEEVADPTAHRRSLQFVGVNGGYESSSEDSSTAENISDNDSTENEAPEPRERVPSVAEAPQLRPAGTAAAKTSRQECQLSRESQHIPTAEGASGSNTEEEIRMELSPDLISACLALEKYLDNPNALTERELKVAYTTVLQEWLRLACRSDAHPELVRRHLVTFRAMSARLLDYVVNIADSNGNTALHYSVSHANFPVVQQLLDSGVCKVDKQNRAGYSPIMLTALATLKTQDDIETVLQLFRLGNINAKASQAGQTALMLAVSHGRVDVVKALLACEADVNVQDDDGSTALMCACEHGHKEIAGLLLAVPSCDISLTDRDGSTALMVALDAGQSEIASMLYSRMNIKCSFAPMSDDESPTSSSAEE [KANK2]”, the “solubility in G1/S (log2)” value in the data set with HeLa Kyoto [1] is -0.0486. Also, the melting temperature in the data set with HeLa Kyoto [2] (cell cycle stage: G1/S) was found to be 46.7 °C. The “solubility change mitosis (log2)” value in the data set with HeLa Kyoto [3] was -0.0916.

On to “MARGQQKIQSQQKNAKKQAGQKKKQGHDQKAAAKAALIYTCTVCRTQMPDPKTFKQHFESKHPKTPLPPELADVQA [ZNF706]”, for which, in the data set with HeLa Kyoto [1], the “solubility in G1/S (log2)” value was -0.28. Besides, the melting temperature with HeLa Kyoto [2] (cell cycle stage: G1/S) came to 57.5 °C; with HeLa Kyoto [2] (cell cycle stage: mitosis), 54.1 °C. The “solubility change mitosis (log2)” value in the data set with HeLa Kyoto [3] was found to be 0.171.

For the substance MARK1, the “solubility in G1/S (log2)” value in the data set with HeLa Kyoto [1] was -0.155. The substance further gave a melting temperature in the data set with HeLa Kyoto [2] (cell cycle stage: mitosis) of 49 °C. In the data set with HeLa Kyoto [3], the “solubility change mitosis (log2)” value was -0.0417.

As for “MASKGPSASASPENSSAGGPSGSSNGAGESGGQDSTFECNICLDTAKDAVISLCGHLFCWPCLHQWLETRPNRQVCPVCKAGISRDKVIPLYGRGSTGQQDPREKTPPRPQGQRPEPENRGGFQGFGFGDGGFQMSFGIGAFPFGIFATAFNINDGRPPPAVPGTPQYVDEQFLSRLFLFVALVIMFWLLIA [RNF185]”, the “solubility in G1/S (log2)” value in the data set on HeLa Kyoto [1] was 0.352. The substance further gave a melting temperature in the data set with HeLa Kyoto [2] (cell cycle stage: G1/S) of 53.4 °C. In the data set with HeLa Kyoto [3], the “solubility change mitosis (log2)” value is -0.146.

For the substance “MASKLLRAVILGPPGSGKGTVCQRIAQNFGLQHLSSGHFLRENIKASTEVGEMAKQYIEKSLLVPDHVITRLMMSELENRRGQHWLLDGFPRTLGQAEALDKICEVDLVISLNIPFETLKDRLSRRWIHPPSGRVYNLDFNPPHVHGIDDVTGEPLVQQEDDKPEAVAARLRQYKDVAKPVIELYKSRGVLHQFSGTETNKIWPYVYTLFSNKITPIQSKEAY [AK4]”, in the data set on HeLa Kyoto [1], the “solubility in G1/S (log2)” value is 0.384. In addition, the melting temperature with HeLa Kyoto [2] (cell cycle stage: mitosis) is 51.3 °C. The “solubility change mitosis (log2)” value in the data set on HeLa Kyoto [3] worked out at 0.0928.

Regarding “MASQNRDPAATSVAAARKGAEPSGGAARGPVGKRLQQELMTLMMSGDKGISAFPESDNLFKWVGTIHGAAGTVYEDLRYKLSLEFPSGYPYNAPTVKFLTPCYHPNVDTQGNICLDILKEKWSALYDVRTILLSIQSLLGEPNIDSPLNTHAAELWKNPTAFKKYLQETYSKQVTSQEP [UBE2C]”, in the data set on HeLa Kyoto [1], the “solubility in G1/S (log2)” value is -0.443. This substance came in with a melting temperature with HeLa Kyoto [2] (cell cycle stage: mitosis) of 49.9 °C. Also, the “solubility change mitosis (log2)” value with HeLa Kyoto [3] amounted to 0.955.

(Values after the supplement of paper PMC5998384.)
